In patent US12099068B2, “Biomarkers for graft-versus-host disease” (Incyte Corporation, priority 2018, dated 2024):

Tested on: plasma proteins
Assay: Plasma proteins modulated between baseline and day 28 in responders (CR, VGPR, PR; n = 19), Example 6 (Table 13)
Type: in vivo, human
Conditions: plasma protein (OLINK NPX); responders (CR, VGPR, PR; n = 19); itacitinib 200 mg or 300 mg QD with corticosteroids; day 28 vs baseline
How it was run: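 Longitudinal comparison, day 28 versus baseline, with steroid-naive (N=10) and steroid-refractory (N=18) patients combined. Proteins measured by OLINK proximity extension, log2 normalized protein expression. Differences tested by t tests, ANOVA, Pearson correlation, P<0.05 significant.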

B1: MESDC2 (protein, UniProt Q14696 34-234, looked up)
LRP chaperone MESD: AEGSPGTPDESTPPPRKKKKDIRDYNDADMARLLEQWEKDDDIEEGDLPEHKRPSAPVDFSKIDPSKPESILKMTKKGKTLMMFVTVSGSPTEKETEEITSLWQGSLFNANYDVQRFIVGSDRAIFMLRDGSYAWEIKDFLVGQDRCADVTLEGQVYPGKGGGSKEKNKTKQDKGKKKKEGDLKSRSSKEENRAGNKREDL
With B1 the “Fold Change, Decreased Expression from Baseline to Day 28” value (“Fold Change, Decreased Expression” below) was −1.7056.

B2: PEBP1 (protein, UniProt P30086 2-187, looked up)
Phosphatidylethanolamine-bindi …: PVDLSKWSGPLSLQEVDEQPQHPLHVTYAGAAVDELGKVLTPTQVKNRPTSISWDGLDSGKLYTLVLTDPDAPSRKDPKYREWHHFLVVNMKGNDISSGTVLSDYVGSGPPKGTGLHRYVWLVYEQDRPLKCDEPILSNRSGDHRGKFKVASFRKKYELRAPVAGTCYQAEWDDYVPKLYEQLSGK
B2 was tested, and the “Fold Change, Decreased Expression” value was −1.307.

B3: PDGF subunit B (protein, UniProt P01127 82-190, looked up)
Platelet-derived growth …: SLGSLTIAEPAMIAECKTRTEVFEISRRLIDRTNANFLVWPPCVEVQRCSGCCNNRNVQCRPTQVQLRPVQVRKIEIVRKKPIFKKATVTLEDHLACKCETVAAARPVT
In the case of B3, the “Fold Change, Decreased Expression” value is reported as −1.9124.

B4: LILRB2 (protein, UniProt Q8N423 22-597, looked up)
Leukocyte immunoglobulin-like …: QTGTIPKPTLWAEPDSVITQGSPVTLSCQGSLEAQEYRLYREKKSASWITRIRPELVKNGQFHIPSITWEHTGRYGCQYYSRARWSELSDPLVLVMTGAYPKPTLSAQPSPVVTSGGRVTLQCESQVAFGGFILCKEGEDEHPQCLNSQPHARGSSRAIFSVGPVSPNRRWSHRCYGYDLNSPYVWSSPSDLLELLVPGVSKKPSLSVQPGPVMAPGESLTLQCVSDVGYDRFVLYKEGERDLRQLPGRQPQAGLSQANFTLGPVSRSYGGQYRCYGAHNLSSECSAPSDPLDILITGQIRGTPFISVQPGPTVASGENVTLLCQSWRQFHTFLLTKAGAADAPLRLRSIHEYPKYQAEFPMSPVTSAHAGTYRCYGSLNSDPYLLSHPSEPLELVVSGPSMGSSPPPTGPISTPGPEDQPLTPTGSDPQSGLGRHLGVVIGILVAVVLLLLLLLLLFLILRHRRQGKHWTSTQRKADFQHPAGAVGPEPTDRGLQWRSSPAADAQEENLYAAVKDTQPEDGVEMDTRAAASEAPQDVTYAQLHSLTLRRKATEPPPSQEREPPAEPSIYATLAIH
In the case of B4, the “Fold Change, Decreased Expression” value is reported as −1.2555.

B5: CCL17 (protein, UniProt Q92583 24-94, looked up)
C-C motif chemokine 17: ARGTNVGRECCLEYFKGAIPLRKLKTWYQTSEDCSRDAIVFVTVQGRAICSDPNNKRVKNAVKYLQSLERS
In the case of B5, the “Fold Change, Decreased Expression” value is reported as −3.059.

B6: EPHB4 (protein, UniProt P54760 16-987, looked up)
Ephrin type-B receptor 4: LEETLLNTKLETADLKWVTFPQVDGQWEELSGLDEEQHSVRTYEVCDVQRAPGQAHWLRTGWVPRRGAVHVYATLRFTMLECLSLPRAGRSCKETFTVFYYESDADTATALTPAWMENPYIKVDTVAAEHLTRKRPGAEATGKVNVKTLRLGPLSKAGFYLAFQDQGACMALLSLHLFYKKCAQLTVNLTRFPETVPRELVVPVAGSCVVDAVPAPGPSPSLYCREDGQWAEQPVTGCSCAPGFEAAEGNTKCRACAQGTFKPLSGEGSCQPCPANSHSNTIGSAVCQCRVGYFRARTDPRGAPCTTPPSAPRSVVSRLNGSSLHLEWSAPLESGGREDLTYALRCRECRPGGSCAPCGGDLTFDPGPRDLVEPWVVVRGLRPDFTYTFEVTALNGVSSLATGPVPFEPVNVTTDREVPPAVSDIRVTRSSPSSLSLAWAVPRAPSGAVLDYEVKYHEKGAEGPSSVRFLKTSENRAELRGLKRGASYLVQVRARSEAGYGPFGQEHHSQTQLDESEGWREQLALIAGTAVVGVVLVLVVIVVAVLCLRKQSNGREAEYSDKHGQYLIGHGTKVYIDPFTYEDPNEAVREFAKEIDVSYVKIEEVIGAGEFGEVCRGRLKAPGKKESCVAIKTLKGGYTERQRREFLSEASIMGQFEHPNIIRLEGVVTNSMPVMILTEFMENGALDSFLRLNDGQFTVIQLVGMLRGIASGMRYLAEMSYVHRDLAARNILVNSNLVCKVSDFGLSRFLEENSSDPTYTSSLGGKIPIRWTAPEAIAFRKFTSASDAWSYGIVMWEVMSFGERPYWDMSNQDVINAIEQDYRLPPPPDCPTSLHQLMLDCWQKDRNARPRFPQVVSALDKMIRNPASLKIVARENGGASHPLLDQRQPHYSAFGSVGEWLRAIKMGRYEESFAAAGFGSFELVSQISAEDLLRIGVTLAGHQKKILASVQHMKSQAKPGTPGGTGGPAPQY
With B6 the “Fold Change, Decreased Expression” value was −1.2339.

B7: SLAMF1 (protein, UniProt Q13291 21-335, looked up)
Signaling lymphocytic …: ASYGTGGRMMNCPKILRQLGSKVLLPLTYERINKSMNKSIHIVVTMAKSLENSVENKIVSLDPSEAGPPRYLGDRYKFYLENLTLGIRESRKEDEGWYLMTLEKNVSVQRFCLQLRLYEQVSTPEIKVLNKTQENGTCTLILGCTVEKGDHVAYSWSEKAGTHPLNPANSSHLLSLTLGPQHADNIYICTVSNPISNNSQTFSPWPGCRTDPSETKPWAVYAGLLGGVIMILIMVVILQLRRRGKTNHYQTTVEKKSLTIYAQVQKPGPLQKKLDSFPAQDPCTTIYVAATEPVPESVQETNSITVYASVTLPES
B7 was tested, and the “Fold Change, Decreased Expression” value was −1.2218.

B8: TANK (protein, UniProt Q92844 1-425, looked up)
TRAF family member-associated …: MDKNIGEQLNKAYEAFRQACMDRDSAVKELQQKTENYEQRIREQQEQLSLQQTIIDKLKSQLLLVNSTQDNNYGCVPLLEDSETRKNNLTLDQPQDKVISGIAREKLPKVRRQEVSSPRKETSARSLGSPLLHERGNIEKTFWDLKEEFHKICMLAKAQKDHLSKLNIPDTATETQCSVPIQCTDKTDKQEALFKPQAKDDINRGAPSITSVTPRGLCRDEEDTSFESLSKFNVKFPPMDNDSTFLHSTPERPGILSPATSEAVCQEKFNMEFRDNPGNFVKTEETLFEIQGIDPIASAIQNLKTTDKTKPSNLVNTCIRTTLDRAACLPPGDHNALYVNSFPLLDPSDAPFPSLDSPGKAIRGPQQPIWKPFPNQDSDSVVLSGTDSELHIPRVCEFCQAVFPPSITSRGDFLRHLNSHFNGET
For B8, the “Fold Change, Decreased Expression” value was −1.3124.

B9: CPXM1 (protein, UniProt Q96SM3 21-734, looked up)
Probable carboxypeptidase X1: APRNSVLGLAQPGTTKVPGSTPALHSSPAQPPAETANGTSEQHVRIRVIKKKKVIMKKRKKLTLTRPTPLVTAGPLVTPTPAGTLDPAEKQETGCPPLGLESLRVSDSRLEASSSQSFGLGPHRGRLNIQSGLEDGDLYDGAWCAEEQDADPWFQVDAGHPTRFSGVITQGRNSVWRYDWVTSYKVQFSNDSRTWWGSRNHSSGMDAVFPANSDPETPVLNLLPEPQVARFIRLLPQTWLQGGAPCLRAEILACPVSDPNDLFLEAPASGSSDPLDFQHHNYKAMRKLMKQVQEQCPNITRIYSIGKSYQGLKLYVMEMSDKPGEHELGEPEVRYVAGMHGNEALGRELLLLLMQFLCHEFLRGNPRVTRLLSEMRIHLLPSMNPDGYEIAYHRGSELVGWAEGRWNNQSIDLNHNFADLNTPLWEAQDDGKVPHIVPNHHLPLPTYYTLPNATVAPETRAVIKWMKRIPFVLSANLHGGELVVSYPFDMTRTPWAARELTPTPDDAVFRWLSTVYAGSNLAMQDTSRRPCHSQDFSVHGNIINGADWHTVPGSMNDFSYLHTNCFEVTVELSCDKFPHENELPQEWENNKDALLTYLEQVRMGIAGVVRDKDTELGIADAVIAVDGINHDVTTAWGGDYWRLLTPGDYMVTASAEGYHSVTRNCRVTFEEGPFPCNFVLTKTPKQRLRELLAAGAKVPPDLRRRLERLRGQKD
With B9 the “Fold Change, Decreased Expression” value was −1.4779.

B10: CRTAM (protein, UniProt O95727 18-393, looked up)
Cytotoxic and regulatory …: SLTNHTETITVEEGQTLTLKCVTSLRKNSSLQWLTPSGFTIFLNEYPALKNSKYQLLHHSANQLSITVPNVTLQDEGVYKCLHYSDSVSTKEVKVIVLATPFKPILEASVIRKQNGEEHVVLMCSTMRSKPPPQITWLLGNSMEVSGGTLHEFETDGKKCNTTSTLIIHTYGKNSTVDCIIRHRGLQGRKLVAPFRFEDLVTDEETASDALERNSLSSQDPQQPTSTVSVTEDSSTSEIDKEEKEQTTQDPDLTTEANPQYLGLARKKSGILLLTLVSFLIFILFIIVQLFIMKLRKAHVIWKKENEVSEHTLESYRSRSNNEETSSEEKNGQSSHPMRCMNYITKLYSEAKTKRKENVQHSKLEEKHIQVPESIV
B10 was tested, and the “Fold Change, Decreased Expression” value was −1.5805.

B11: hK14 (protein, UniProt Q9P0G3 41-267, looked up)
Kallikrein-14: IIGGHTCTRSSQPWQAALLAGPRRRFLCGGALLSGQWVITAAHCGRPILQVALGKHNLRRWEATQQVLRVVRQVTHPNYNSRTHDNDLMLLQLQQPARIGRAVRPIEVTQACASPGTSCRVSGWGTISSPIARYPASLQCVNINISPDEVCQKAYPRTITPGMVCAGVPQGGKDSCQGDSGGPLVCRGQLQGLVSWGMERCALPGYPGVYTNLCKYRSWIEETMRDK
For B11, the “Fold Change, Increased Expression from Baseline to Day 28” value was 1.5574.

B12: SCARF1 (protein, UniProt Q14162 20-830, looked up)
Scavenger receptor class F …: SELDPKGQHVCVASSPSAELQCCAGWRQKDQECTIPICEGPDACQKDEVCVKPGLCRCKPGFFGAHCSSRCPGQYWGPDCRESCPCHPHGQCEPATGACQCQADRWGARCEFPCACGPHGRCDPATGVCHCEPGWWSSTCRRPCQCNTAAARCEQATGACVCKPGWWGRRCSFRCNCHGSPCEQDSGRCACRPGWWGPECQQQCECVRGRCSAASGECTCPPGFRGARCELPCPAGSHGVQCAHSCGRCKHNEPCSPDTGSCESCEPGWNGTQCQQPCLPGTFGESCEQQCPHCRHGEACEPDTGHCQRCDPGWLGPRCEDPCPTGTFGEDCGSTCPTCVQGSCDTVTGDCVCSAGYWGPSCNASCPAGFHGNNCSVPCECPEGLCHPVSGSCQPGSGSRDTALIAGSLVPLLLLFLGLACCACCCWAPRSDLKDRPARDGATVSRMKLQVWGTLTSLGSTLPCRSLSSHKLPWVTVSHHDPEVPFNHSFIEPPSAGWATDDSFSSDPESGEADEVPAYCVPPQEGMVPVAQAGSSEASLAAGAFPPPEDASTPFAIPRTSSLARAKRPSVSFAEGTKFAPQSRRSSGELSSPLRKPKRLSRGAQSGPEGREAEESTGPEEAEAPESFPAAASPGDSATGHRRPPLGGRTVAEHVEAIEGSVQESSGPVTTIYMLAGKPRGSEGPVRSVFRHFGSFQKGQAEAKVKRAIPKPPRQALNRKKGSPGLASGSVGQSPNSAPKAGLPGATGPMAVRPEEAVRGLGAGTESSRRAQEPVSGCGSPEQDPQKQAEEERQEEPEYENVVPISRPPEP
With B12 the “Fold Change, Decreased Expression” value was −1.3509.
